Source: the supplement of paper PMC7877785
± gives the uncertainty stated by the source.

Experiment: self-splicing fitness, log relative to wild type (ln ratio); higher = more splicing; Tetrahymena group I intron in knt gene, E. coli kanamycin selection, DiMSum; sequences stand for … in CUCUCU…GGAGGGAAAAGUUAUCAGGCAUGCACCUGGUAGCUAGUCUUUAAACCAAUAGAUUGCAUCGGUUUAAAAGGCAAGACCGUCAAAUUGCGGGAAAGGGGUCAACAGCCGUUCAGUACCAAGUCUCAGGGGAAACUUUGAGAUGGCCUUGCAAAGGGUAUGGUAAUAAGCUGACGGACAUGGUCCUAACCACGCAGCCAAGUCCUAAGUCAACAGAUCUUCUGUUGAUAUGGAUGCAGUUCACAGACUAAAUGUCGGUCGGGGAAGAUGUAUUCUUCUCAUAAGAUAUAGUCGGACCUCUCCUUAAUGGGAGCUAGCGGAUGAAGUGAUGCAACACUGGAGCCGCUGGGAACUAAUUUGUAUGCGAAAGUAUAUUGAUUAGUUUUGGAGUACUCGUGGUCG
Summary of the method: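 Colonies from six replicate transformations of E. coli BL21(DE3) were pooled and amplicon-sequenced on an Illumina HiSeq 2500. The library placed an intron with all eight P1ex-region nucleotides randomised inside the knt kanamycin-resistance gene on pET-22b(+), and cells grew overnight at 37°C or 30°C on LB agar with or without 25 μg/mL kanamycin (plus 100 μg/mL carbenicillin, 50 μM IPTG, 0.2% rhamnose). Fitness is the DiMSum error-weighted combination of wild-type-normalised replicate fold changes, kanamycin versus none.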

Sequence | self-splicing fitness (ln) (30 °C) | self-splicing fitness (ln) (37 °C)
GCUAAGCAAUAUUACGUUGC | -2.26 ± 0.46 | -1.71 ± 0.38
GCUCAGCAAUAUUACGACAA | -1.6 ± 0.15 | -1.42 ± 0.21
GCUCAGCAAUAUUACGAGUG | -1.21 ± 0.063 | -0.148 ± 0.092
GCUCAGCAAUAUUACGAUCA | -0.7 ± 0.19 | -0.164 ± 0.17
GCUCAGCAAUAUUACGAUUA | -0.516 ± 0.072 | -0.287 ± 0.08
GCUCAGCAAUAUUACGCAUC | -0.653 ± 0.079 | -0.186 ± 0.087
GCUCAGCAAUAUUACGCCGU | -0.521 ± 0.14 | -1.61 ± 0.22
GCUCAGCAAUAUUACGCGUC | -0.866 ± 0.1 | -0.379 ± 0.12
GCUCAGCAAUAUUACGGAGC | – | -1.82 ± 0.44
GCUCAGCAAUAUUACGGAGG | -1.44 ± 0.08 | -0.504 ± 0.091
GCUCAGCAAUAUUACGGCAA | -1.98 ± 0.16 | -1.1 ± 0.17
GCUCAGCAAUAUUACGGCGA | -1.73 ± 0.12 | -1.36 ± 0.19
GCUCAGCAAUAUUACGGCGC | -1.44 ± 0.085 | -0.248 ± 0.12
GCUCAGCAAUAUUACGGGAC | -0.927 ± 0.27 | -0.928 ± 0.26
GCUCAGCAAUAUUACGGUAC | -0.486 ± 0.13 | -0.709 ± 0.15
GCUCAGCAAUAUUACGUACU | -0.953 ± 0.087 | -0.636 ± 0.086
GCUCAGCAAUAUUACGUCCA | -1.28 ± 0.11 | -0.711 ± 0.13
GCUCAGCAAUAUUACGUGCA | -1.12 ± 0.097 | -0.787 ± 0.1
GCUCAGCAAUAUUACGUUCU | -0.649 ± 0.074 | -0.195 ± 0.09
GCUGAGCAAUAUUACGAGCC | -1.55 ± 0.43 | –
GCUGAGCAAUAUUACGAGGU | -3.72 ± 0.29 | -1.74 ± 0.22
GCUGAGCAAUAUUACGCAAC | -2.18 ± 0.24 | -2.11 ± 0.37
GCUGAGCAAUAUUACGCAUG | -2.68 ± 0.13 | -1.92 ± 0.17
GCUGAGCAAUAUUACGCCUA | -1.55 ± 0.32 | -0.595 ± 0.2
GCUGAGCAAUAUUACGCUGA | -2.99 ± 0.2 | -1.15 ± 0.17

Sequence | self-splicing fitness (ln) (30 °C) | self-splicing fitness (ln) (37 °C)
GCUGAGCAAUAUUACGCUUC | -2.38 ± 0.15 | -3.41 ± 0.39
GCUGAGCAAUAUUACGGACA | -2.53 ± 0.2 | -0.488 ± 0.17
GCUGAGCAAUAUUACGGCUU | -2.37 ± 0.24 | –
GCUGAGCAAUAUUACGGGAA | -4.56 ± 0.42 | -2.02 ± 0.21
GCUGAGCAAUAUUACGGGCG | -1.83 ± 0.14 | 0.15 ± 0.15
GCUGAGCAAUAUUACGGGUC | -4.37 ± 0.46 | -1.36 ± 0.24
GCUGAGCAAUAUUACGGGUU | -3.5 ± 0.15 | -3.05 ± 0.13
GCUGAGCAAUAUUACGGUUC | -2.48 ± 0.14 | -1.69 ± 0.15
GCUGAGCAAUAUUACGUCAA | -3.38 ± 0.47 | –
GCUGAGCAAUAUUACGUGGG | -2.02 ± 0.16 | -2.36 ± 0.26
GCUGAGCAAUAUUACGUGUA | -2.4 ± 0.21 | -3.02 ± 0.32
GCUUAGCAAUAUUACGAACA | -1.38 ± 0.16 | -0.519 ± 0.19
GCUUAGCAAUAUUACGAACU | -0.838 ± 0.08 | 0.0658 ± 0.1
GCUUAGCAAUAUUACGACUU | 0.0581 ± 0.092 | 0.248 ± 0.1
GCUUAGCAAUAUUACGAGGU | -4.11 ± 0.21 | -2.55 ± 0.18
GCUUAGCAAUAUUACGAGUA | -1.37 ± 0.16 | -0.0404 ± 0.14
GCUUAGCAAUAUUACGAGUC | -2.18 ± 0.16 | -2.22 ± 0.22
GCUUAGCAAUAUUACGAUUC | -0.128 ± 0.12 | 0.0621 ± 0.13
GCUUAGCAAUAUUACGCAAC | -2.43 ± 0.22 | -0.318 ± 0.13
GCUUAGCAAUAUUACGCCAG | -1.89 ± 0.33 | -1.76 ± 0.33
GCUUAGCAAUAUUACGCGUC | -0.947 ± 0.13 | -0.88 ± 0.13
GCUUAGCAAUAUUACGGAAA | -2.37 ± 0.25 | -0.752 ± 0.17
GCUUAGCAAUAUUACGGAUA | -2.7 ± 0.39 | -1.71 ± 0.31
GCUUAGCAAUAUUACGGAUC | -0.319 ± 0.092 | 0.437 ± 0.11
GCUUAGCAAUAUUACGGCUG | -3.18 ± 0.28 | -2.21 ± 0.28

Sequence | self-splicing fitness (ln) (30 °C) | self-splicing fitness (ln) (37 °C)
GCUUAGCAAUAUUACGGGUG | -0.826 ± 0.059 | -0.144 ± 0.075
GCUUAGCAAUAUUACGGUUC | -0.635 ± 0.098 | -0.185 ± 0.12
GCUUAGCAAUAUUACGUCAU | -2.19 ± 0.14 | -0.965 ± 0.12
GGAAAGCAAUAUUACGAAAU | -1.52 ± 0.3 | -1 ± 0.41
GGAAAGCAAUAUUACGAAUC | -1.73 ± 0.14 | -1.5 ± 0.17
GGAAAGCAAUAUUACGACGA | -0.602 ± 0.13 | 0.0265 ± 0.16
GGAAAGCAAUAUUACGAGCU | -0.199 ± 0.11 | 0.478 ± 0.12
GGAAAGCAAUAUUACGAGGG | -3.74 ± 0.17 | -2.54 ± 0.16
GGAAAGCAAUAUUACGCCCA | 0.064 ± 0.16 | 0.325 ± 0.23
GGAAAGCAAUAUUACGCUCU | -3.11 ± 0.33 | –
GGAAAGCAAUAUUACGGAUA | -2.59 ± 0.21 | -1.55 ± 0.19
GGAAAGCAAUAUUACGGAUG | -2.54 ± 0.17 | -2.18 ± 0.21
GGAAAGCAAUAUUACGGCAG | -1.79 ± 0.21 | -3.11 ± 0.43
GGAAAGCAAUAUUACGGCGA | -0.475 ± 0.1 | -0.211 ± 0.089
GGAAAGCAAUAUUACGUAAA | -1.94 ± 0.1 | -0.563 ± 0.11
GGAAAGCAAUAUUACGUAAC | -1.42 ± 0.12 | -1.42 ± 0.16
GGAAAGCAAUAUUACGUACC | -2.13 ± 0.46 | -2.35 ± 0.49
GGAAAGCAAUAUUACGUCGG | -3.51 ± 0.36 | –
GGAAAGCAAUAUUACGUGUU | -2.76 ± 0.11 | -1.66 ± 0.12
GGAAAGCAAUAUUACGUUGC | -4.27 ± 0.35 | -2.2 ± 0.26
GGAAAGCAAUAUUACGUUGG | -3.55 ± 0.2 | -2.83 ± 0.34
GGACAGCAAUAUUACGAACA | -0.522 ± 0.18 | -0.703 ± 0.18
GGACAGCAAUAUUACGAACG | -0.686 ± 0.08 | -0.333 ± 0.1
GGACAGCAAUAUUACGAAGA | -2.27 ± 0.22 | -0.517 ± 0.19
GGACAGCAAUAUUACGAGCU | -1.01 ± 0.18 | 0.191 ± 0.19

Sequence | self-splicing fitness (ln) (30 °C) | self-splicing fitness (ln) (37 °C)
GGACAGCAAUAUUACGAGGA | -2.32 ± 0.2 | -1.85 ± 0.16
GGACAGCAAUAUUACGAUAG | -3.66 ± 0.25 | -2.13 ± 0.23
GGACAGCAAUAUUACGCAAA | -1.19 ± 0.13 | -0.67 ± 0.12
GGACAGCAAUAUUACGCAGA | -0.851 ± 0.16 | -0.643 ± 0.15
GGACAGCAAUAUUACGCGAG | -1.24 ± 0.058 | -0.0238 ± 0.063
GGACAGCAAUAUUACGCGGC | -3.12 ± 0.22 | -2.76 ± 0.34
GGACAGCAAUAUUACGCGGG | -2.52 ± 0.1 | -0.903 ± 0.091
GGACAGCAAUAUUACGCGUA | -0.744 ± 0.065 | -0.68 ± 0.073
GGACAGCAAUAUUACGGCUA | -0.452 ± 0.13 | -0.278 ± 0.12
GGACAGCAAUAUUACGGUAU | -0.41 ± 0.066 | -0.343 ± 0.09
GGACAGCAAUAUUACGUACC | -1.81 ± 0.32 | –
GGACAGCAAUAUUACGUCAG | -0.431 ± 0.068 | -0.434 ± 0.084
GGACAGCAAUAUUACGUGAU | -0.212 ± 0.061 | -0.0525 ± 0.078
GGACAGCAAUAUUACGUGCU | -0.778 ± 0.11 | -0.685 ± 0.13
GGACAGCAAUAUUACGUUAC | -2.86 ± 0.2 | -2.49 ± 0.26
GGACAGCAAUAUUACGUUCU | -2.91 ± 0.12 | -2.45 ± 0.18
GGACAGCAAUAUUACGUUUU | -1.06 ± 0.061 | -0.21 ± 0.073
GGAGAGCAAUAUUACGAACA | – | -1.93 ± 0.22
GGAGAGCAAUAUUACGAAGA | -3.05 ± 0.44 | -1.59 ± 0.39
GGAGAGCAAUAUUACGAAGC | -3.17 ± 0.37 | –
GGAGAGCAAUAUUACGACAU | -2.642 ± 0.022 | -1.55 ± 0.037
GGAGAGCAAUAUUACGACGA | -2.34 ± 0.21 | -2.08 ± 0.3
GGAGAGCAAUAUUACGACUU | -2.58 ± 0.19 | -0.744 ± 0.16
